Assay results taken from the supplement of paper PMC9732359.
± gives the uncertainty stated by the source.

Assay: protein stability index of a GFP-peptide fusion (yeast GPS) (PSI 1-4); higher = more stable; sorted into four equal gates, so the index is relative within each strain
How it was run: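 For each peptide, the protein stability index sums the read frequency in every gate after multiplying it by the gate number. Read frequencies came from plasmids that were PCR-amplified from each gate and Illumina-sequenced, with reads assigned to strains by barcodes. The gates were four equal bins of GFP/Cherry fluorescence ratio applied to mid-log yeast in leucine-free medium carrying a pooled library of tiled 17-residue yeast protein peptides fused downstream of GFP on a Cherry-expressing plasmid.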

Sequence | protein stability index (doa10∆) | protein stability index (pdr5∆) | protein stability index (san1∆) | protein stability index (ubr1∆)
GRVYRPLFIVEDDESLG [RPB2] | 1.71 ± 0.063 | 1.8 ± 0.087 | 1.59 ± 0.1 | 1.69 ± 0.034
IKVTVQLKIQNRQAAAS [RPL12A] | 1.57 ± 0.052 | 2 ± 0.052 | 1.75 ± 0.1 | 2.16 ± 0.04
RENMICKIDFQKNFMDQ [RRI2] | 2.9 ± 0.13 | 2.96 ± 0.11 | 3.19 ± 0.067 | 3.24 ± 0.081
MAPVKSQESINQKLALV [RPL30] | 2.05 ± 0.11 | 2.53 ± 0.14 | 2.18 ± 0.13 | 2.25 ± 0.061
LKTDGVRAVSITSFGFG [FAS2] | 1.44 ± 0.067 | 2.15 ± 0.099 | 1.5 ± 0.11 | 1.41 ± 0.05
IEMYVQEASKQYTKDEQ [RPN2] | 3.3 ± 0.084 | 3.16 ± 0.091 | 3.06 ± 0.057 | 3.31 ± 0.069
ANICLTFLESINGINWR [SIN4] | 2.54 ± 0.043 | 2.31 ± 0.046 | 2.46 ± 0.058 | 2.36 ± 0.042
SNYDWLFQLLNALTVGD [RPN9] | 2.34 ± 0.076 | 2.52 ± 0.075 | 2.2 ± 0.083 | 2.56 ± 0.048
AENQTGESTVESEKLVT [RPC82] | 3.17 ± 0.089 | 3.29 ± 0.11 | 3.15 ± 0.11 | 3.45 ± 0.29
LVHTQIRKTPLAQKKAH [RPL3] | 1.37 ± 0.057 | 1.38 ± 0.049 | 1.65 ± 0.069 | 1.63 ± 0.034
NSMEYTGKITKMFQDIR [CDC53] | 3.06 ± 0.27 | 3.41 ± 0.14 | 2.96 ± 0.085 | 3.28 ± 0.078
NNNINENELFNDRKQTT [SSN2] | 2.71 ± 0.12 | 3.09 ± 0.1 | 2.87 ± 0.1 | 2.78 ± 0.14
KDLFELERYYKEQADIY [ARP7] | 3.11 ± 0.09 | 3.34 ± 0.083 | 3.46 ± 0.12 | 3.41 ± 0.067
KRKVLELKKKRKIKRLE [SRP72] | 3.24 ± 0.077 | 3.2 ± 0.095 | 3.38 ± 0.1 | 3.29 ± 0.058
DNMITGVTKGYKYKMRY [RPL9A] | 3.07 ± 0.096 | 3.3 ± 0.14 | 2.92 ± 0.27 | 3.1 ± 0.067
MVHLYSIVEECDARFDE [RPC17] | 3.04 ± 0.12 | 2.94 ± 0.078 | 3.01 ± 0.099 | 2.74 ± 0.18
SGGSVNLYHVTEDGWIY [PRE2] | 2.85 ± 0.12 | 3.16 ± 0.15 | 3 ± 0.087 | 3.04 ± 0.089
GVEYRLRLRISRKRNEE [RPL31A] | 1.5 ± 0.12 | 1.26 ± 0.12 |  | 1.18 ± 0.22
TAPSSQRRVLLSAPLSK [RPL26A] | 2.45 ± 0.045 | 2.31 ± 0.053 | 2.31 ± 0.055 | 2.18 ± 0.036
AYEEEEENEDNDGNNRT [NUT1] | 3.25 ± 0.12 | 3.37 ± 0.11 | 3.47 ± 0.15 | 3.46 ± 0.068
NKNGENKKIGKRPPEIM [SIR4] | 3.09 ± 0.12 | 3.21 ± 0.11 | 3.28 ± 0.14 | 3.28 ± 0.091
PSTTDDENGDKNDNGGK [SWI3] | 3.09 ± 0.089 | 3.3 ± 0.069 | 3.23 ± 0.05 | 3.25 ± 0.079
SLKLENSDLEGKIRGVE [SMC2] | 3.23 ± 0.086 | 3.37 ± 0.064 | 3.37 ± 0.061 | 3.21 ± 0.05
NNYDDFMLSDDEGMESI [RRI2] | 2.54 ± 0.26 | 3.71 ± 0.19 | 3.37 ± 0.18 | 
EVIFTDVLKSQANTEPE [MCD1] | 3.07 ± 0.21 | 3.08 ± 0.12 | 2.97 ± 0.088 | 2.95 ± 0.12
ILHGSKSQEQREHSLQL [PRP28] | 3.11 ± 0.1 | 2.69 ± 0.089 | 2.92 ± 0.067 | 2.35 ± 0.041

Sequence | protein stability index (doa10∆) | protein stability index (pdr5∆) | protein stability index (san1∆) | protein stability index (ubr1∆)
SLAQNDCNSALDQLLVL [RPN5] | 2.15 ± 0.048 | 2.35 ± 0.053 | 2.15 ± 0.053 | 2.37 ± 0.05
ITMPATNGKPDMAILER [ARP7] | 3.17 ± 0.059 | 3.08 ± 0.059 | 3.06 ± 0.041 | 3.18 ± 0.042
NASKVISTPIINAVLVN [RPO31] | 1.63 ± 0.11 | 2.19 ± 0.14 | 1.74 ± 0.2 | 
NGGNNTQQPGTNSHYNN [SNF2] | 3.05 ± 0.058 | 3.16 ± 0.063 | 3.04 ± 0.054 | 3.05 ± 0.047
KYSKLVDNVTLESYKTQ [SRP72] | 3.54 ± 0.15 | 3.22 ± 0.16 | 3.42 ± 0.1 | 3.22 ± 0.11
HNGRDKIQFHIHFADVA [RGR1] | 1.68 ± 0.051 | 1.79 ± 0.049 | 1.43 ± 0.079 | 1.84 ± 0.043
LKESVEGEFNGDTIELA [PRE8] | 3.12 ± 0.092 | 3.48 ± 0.11 | 3.4 ± 0.072 | 3.2 ± 0.073
QLNSRAVAVVVDPIQSV [RPN11] | 1.27 ± 0.067 | 1.65 ± 0.076 | 1.43 ± 0.12 | 1.48 ± 0.051
SNQLISNYAASNSMDRS [SWI1] | 3.11 ± 0.18 | 3.19 ± 0.15 | 3.27 ± 0.12 | 3.09 ± 0.12
LDISVFLLEKAGERKIP [TAF14] | 2.26 ± 0.078 | 2.43 ± 0.072 | 2.44 ± 0.063 | 2.16 ± 0.061
KAKVEEMNNIIAASRRH [RPL36A] | 2.85 ± 0.084 | 3.25 ± 0.075 | 3.19 ± 0.068 | 3.13 ± 0.072
GIWNDLGSGSNVDVCVM [PUP1] | 2.69 ± 0.27 |  |  | 
VSTSSGAAANNNDQKRQ [YJL041W/NSP1] | 3.37 ± 0.084 | 3.17 ± 0.073 | 3.27 ± 0.035 | 3.45 ± 0.069
GKPSFVFGASDKQAEGT [YOR098C/NUP1] | 3.33 ± 0.13 | 3.07 ± 0.12 | 3.07 ± 0.12 | 3.29 ± 0.087
SYTDAQDKSKKIMNVTT [YMR129W/POM152] | 2.97 ± 0.1 | 2.66 ± 0.11 | 2.88 ± 0.056 | 3.03 ± 0.048
LAHSQHRCAIRSGALIK [SSN2] | 1.5 ± 0.058 | 1.22 ± 0.046 | 1.16 ± 0.13 | 1.16 ± 0.037
SKSMKFSRRFDCRDVYC [CSN9] | 2.7 ± 0.07 | 2.64 ± 0.09 | 2.58 ± 0.088 | 2.66 ± 0.051
LNEKFQELRKKVNPNIM [SMC2] |  | 2.61 ± 0.27 | 2.98 ± 0.2 | 2.81 ± 0.15
FDFLDDGTAQLSNNKTD [YJR042W/NUP85] | 3.38 ± 0.23 | 3.52 ± 0.21 | 3.5 ± 0.099 | 3.39 ± 0.12
GIVDELAYAVLGIALIA [RPN1] | 1.76 ± 0.1 | 1.42 ± 0.1 | 1.48 ± 0.16 | 1.17 ± 0.062
LKISGEEESLHVFQYAN [RPC37] | 1.85 ± 0.13 | 2.21 ± 0.13 | 2.27 ± 0.14 | 2.41 ± 0.071
HHYNPKTKKLNLSAFKI [BRR2] | 2.21 ± 0.062 | 2.4 ± 0.05 | 2.4 ± 0.055 | 2.4 ± 0.042
NTPLVGAAFKVISNLVP [YJL039C/NUP192] | 1.96 ± 0.081 | 2.08 ± 0.095 | 2.73 ± 0.16 | 2.47 ± 0.1
GCYFEEKRYDDKLLDFI [CSN12] | 3.34 ± 0.06 | 2.92 ± 0.098 | 3.04 ± 0.066 | 3.04 ± 0.077
KNLNPASSSPSSTDFST [ECM29] | 3.11 ± 0.049 | 2.81 ± 0.045 | 2.97 ± 0.056 | 2.91 ± 0.032
QQQGQIPQSQQVPQVRS [SNF5] | 2.37 ± 0.036 | 2.73 ± 0.042 | 2.45 ± 0.063 | 2.36 ± 0.048
